Patent US20190300618A1 (Merck Sharp & Dohme, published 2019)
One block for each molecule: values may come before it.

Columns and labels:
[1] = molecular target: human CD27 (wild type), expressed on cells (human) (UniProt P26842); assay: flow cytometry on primary T cells
[2] = molecular target: human CD27 (wild type), expressed on cells (human) (UniProt P26842); assay: flow cytometry MFI on CD4+ T cells from peripheral blood
K38A [3] = assay: flow cytometry, CHO-K1; sub-column 1 of 2
P8A = assay: flow cytometry, CHO-K1; sub-column 1 of 2
D32A = assay: flow cytometry, CHO-K1; sub-column 1 of 2
K31A = assay: flow cytometry, CHO-K1; sub-column 1 of 2
Q15A [4] = assay: flow cytometry, CHO-K1; sub-column 1 of 2
K17A [5] = assay: flow cytometry, CHO-K1; sub-column 1 of 2
S63A = assay: flow cytometry, CHO-K1; sub-column 1 of 2
D43A [6] = assay: flow cytometry, CHO-K1; sub-column 1 of 2
R37A [7] = assay: flow cytometry, CHO-K1; sub-column 1 of 2
Q41A = assay: flow cytometry, CHO-K1; sub-column 1 of 2
Q91A = assay: flow cytometry, CHO-K1; sub-column 1 of 2
[8] = molecular target: Macaca mulatta CD27 (mmCD27), expressed on cells (Macaca mulatta (rhesus); same entry given for cynomolgus monkey); assay: cell ELISA on CD27-transfected CHOK1 cells
[9] = molecular target: human CD27 (A59T), expressed on cells (human) (UniProt P26842); assay: cell ELISA on CD27-transfected CHOK1 cells
[10] = molecular target: human CD27 (wild type), expressed on cells (human) (UniProt P26842); assay: cell ELISA on CD27-transfected CHOK1 cells
F28A = molecular target: T1, F28A; assay: flow cytometry, CHO-K1; single column;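 note: CHO-K1 cells transiently transfected with hCD27 alanine mutant constructs, anti-hCD27 antibody binding measured by flow cytometry, 30 min at 4 °C, wild-type hCD27 binding taken as 100%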
T1 construct: also called hCD27 F28A
T1 receptor: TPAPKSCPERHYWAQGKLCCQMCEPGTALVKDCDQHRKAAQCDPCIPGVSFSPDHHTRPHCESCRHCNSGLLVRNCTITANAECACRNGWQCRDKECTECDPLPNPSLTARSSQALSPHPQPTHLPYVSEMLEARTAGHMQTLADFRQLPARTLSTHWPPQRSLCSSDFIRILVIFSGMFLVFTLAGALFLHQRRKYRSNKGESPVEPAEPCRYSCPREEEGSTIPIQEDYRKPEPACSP
Experimental: (§1) The ability of several anti-hCD27 antibodies to bind to a series of hCD27 alanine mutants was determined using CHO-K1 cells, transiently transfected pCI-neo empty vector, pCI-neo.hCD27 and several pCI-neo.CD27Ala mutant constructs.
(§2) Detached cells were transferred to 96 wells round-bottomed well plates at approximately 1.2×10⁵ cells/well. After spinning down the cells, discarding the supernatants and re-suspending the cells in the residual volume, the primary antibodies were added and incubated for 30 minutes at 4° C. Cells were washed three times with DPBS/BSA 1%, followed by centrifugation, discarding of the supernatants and re-suspension in the residual volume. […] After washing once, antibody binding was detected using the HTS plate reader (FACS Canto II) and FlowJo software for data analysis. Debris, dead cells and doublets were excluded from the analysis. Binding was expressed as the geometric mean of the FITC signal, relative to antibody binding to hCD27, which was set at 100%.

Q15A [11] = molecular target: T2, Q15A; assay: flow cytometry, CHO-K1; single column;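 note: CHO-K1 cells transiently transfected with hCD27 alanine mutant constructs, anti-hCD27 antibody binding measured by flow cytometry, 30 min at 4 °C, wild-type hCD27 binding taken as 100%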
T2 construct: also called hCD27 Q15A
T2 receptor: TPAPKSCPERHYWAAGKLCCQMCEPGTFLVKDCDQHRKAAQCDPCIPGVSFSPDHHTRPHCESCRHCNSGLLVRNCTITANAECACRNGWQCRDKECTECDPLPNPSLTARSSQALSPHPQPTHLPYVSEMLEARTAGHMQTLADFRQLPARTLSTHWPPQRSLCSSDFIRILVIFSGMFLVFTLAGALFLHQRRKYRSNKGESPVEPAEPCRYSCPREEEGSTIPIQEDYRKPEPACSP
Experimental: as §1, §2

R37A [12] = molecular target: T3, R37A; assay: flow cytometry, CHO-K1; single column;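 note: CHO-K1 cells transiently transfected with hCD27 alanine mutant constructs, anti-hCD27 antibody binding measured by flow cytometry, 30 min at 4 °C, wild-type hCD27 binding taken as 100%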
T3 construct: also called hCD27 R37A
T3 receptor: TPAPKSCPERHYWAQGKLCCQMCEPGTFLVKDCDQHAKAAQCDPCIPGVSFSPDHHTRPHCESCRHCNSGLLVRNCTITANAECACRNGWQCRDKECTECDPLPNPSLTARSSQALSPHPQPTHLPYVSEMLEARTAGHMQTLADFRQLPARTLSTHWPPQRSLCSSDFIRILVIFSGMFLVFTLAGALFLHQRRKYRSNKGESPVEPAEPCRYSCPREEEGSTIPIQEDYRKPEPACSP
Experimental: as §1, §2

N88A = molecular target: T4, N88A; assay: flow cytometry, CHO-K1; single column;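 note: CHO-K1 cells transiently transfected with hCD27 alanine mutant constructs, anti-hCD27 antibody binding measured by flow cytometry, 30 min at 4 °C, wild-type hCD27 binding taken as 100%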
T4 construct: also called hCD27 N88A
T4 receptor: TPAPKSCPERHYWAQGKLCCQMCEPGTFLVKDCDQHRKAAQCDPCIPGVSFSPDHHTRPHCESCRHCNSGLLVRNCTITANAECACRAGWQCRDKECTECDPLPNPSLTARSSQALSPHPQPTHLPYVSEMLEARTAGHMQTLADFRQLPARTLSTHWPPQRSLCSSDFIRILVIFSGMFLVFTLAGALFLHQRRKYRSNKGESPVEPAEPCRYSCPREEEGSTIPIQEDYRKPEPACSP
Experimental: as §1, §2

K17A [13] = molecular target: T5, K17A; assay: flow cytometry, CHO-K1; single column
T5 construct: also called hCD27 K17A
T5 receptor: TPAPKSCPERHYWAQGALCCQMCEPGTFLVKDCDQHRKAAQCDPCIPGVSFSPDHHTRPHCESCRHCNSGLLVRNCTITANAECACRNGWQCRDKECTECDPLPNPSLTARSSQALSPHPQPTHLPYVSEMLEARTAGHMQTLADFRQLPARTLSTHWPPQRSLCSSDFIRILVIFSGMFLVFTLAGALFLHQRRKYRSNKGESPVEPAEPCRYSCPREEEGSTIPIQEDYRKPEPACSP
Experimental: as §1, §2

K38A [14] = molecular target: T6, K38A; assay: flow cytometry, CHO-K1; single column
T6 construct: also called hCD27 K38A
T6 receptor: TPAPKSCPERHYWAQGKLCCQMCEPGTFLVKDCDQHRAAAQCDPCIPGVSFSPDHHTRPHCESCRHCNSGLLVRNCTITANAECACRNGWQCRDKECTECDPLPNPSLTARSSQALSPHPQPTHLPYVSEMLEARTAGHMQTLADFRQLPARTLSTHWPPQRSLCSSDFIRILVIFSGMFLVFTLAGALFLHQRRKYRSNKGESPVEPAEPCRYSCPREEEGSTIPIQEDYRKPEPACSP
Experimental: as §1, §2

D43A [15] = molecular target: T7, D43A; assay: flow cytometry, CHO-K1; single column
T7 construct: also called hCD27 D43A
T7 receptor: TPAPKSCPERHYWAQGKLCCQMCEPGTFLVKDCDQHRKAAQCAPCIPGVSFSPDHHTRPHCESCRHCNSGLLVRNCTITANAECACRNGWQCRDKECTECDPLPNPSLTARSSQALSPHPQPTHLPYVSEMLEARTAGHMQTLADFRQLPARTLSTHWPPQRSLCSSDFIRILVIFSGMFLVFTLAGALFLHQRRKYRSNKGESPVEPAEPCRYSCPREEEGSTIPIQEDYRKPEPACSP
Experimental: as §1, §2

fold higher EC50 compared to 131AVH6VL6-hIgG1 [1]: 5 fold | EC50 [2]: 1540 pM | % of WT hCD27 binding (geo mean FITC) (K38A [3]): 96.5% | % of WT hCD27 binding (geo mean FITC) (P8A): 82.5% | % of WT hCD27 binding (geo mean FITC) (D32A): 115% | % of WT hCD27 binding (geo mean FITC) (K31A): 205% | % of WT hCD27 binding (geo mean FITC) (Q15A [4]): 99% | % of WT hCD27 binding (geo mean FITC) (K17A [5]): 95.1% | % of WT hCD27 binding (geo mean FITC) (S63A): 144% | % of WT hCD27 binding (geo mean FITC) (D43A [6]): 202% | % of WT hCD27 binding (geo mean FITC) (R37A [7]): 109% | % of WT hCD27 binding (geo mean FITC) (Q41A): 104% | % of WT hCD27 binding (geo mean FITC) (Q91A): 156% | EC50 [8]: 193 pM | EC50 [9]: 326 pM | EC50 [10]: 325 pM
Molecule: 1F5 hIgG1 (antibody)

% of WT hCD27 binding (geo mean FITC) (F28A): 59.4% | % of WT hCD27 binding (geo mean FITC) (Q15A [11]): 98.6% | % of WT hCD27 binding (geo mean FITC) (R37A [12]): 106% | % of WT hCD27 binding (geo mean FITC) (N88A): 132% | % of WT hCD27 binding (geo mean FITC) (K17A [13]): 120% | % of WT hCD27 binding (geo mean FITC) (K38A [14]): 97.6% | % of WT hCD27 binding (geo mean FITC) (D43A [15]): 31%
B1: hCD27.15-6B (humanized hCD27.15, human IgG4, Clone 6B) (antibody, V domains shown)
VH: QVQLVQSGAEVKKPGASVKVSCKASGFIIKATYMHWVRQAPGQRLEWMGRIDPANGETKYDPKFQVRVTITADTSASTAYMELSSLRSEDTAVYYCARYAWYFDVWGQGTLVTVSS
VL: DIQMTQSPSSLSASVGDRVTITCRASENIYSFLAWYQQKPGKAPKLLIYHAKTLAEGVTSRFSGSGSGTDFTLTISSLQPEDSATYYCQHYYGSPLTFGQGTRLEIKR
notes: humanized version of hCD27.15 from WO2012/004367 with identical CDR regions; also called hCD27.15 (humanized 6B); hCD27.15 6B humanized antibody
